Measured values taken from US20210046160A1, “Immuno Oncology Combination Therapies With IL-2 Conjugates” (Synthorx, Inc., priority 2019, published 2021).

Columns and labels:
Experiment in all cases: cell-based or functional assay
[1] = target: IL-2 receptor αβγ on recombinant human U2OS cells further engineered to express the IL-2Rα subunit (PathHunter IL-2 Cytokine Receptor assay) (UniProt P01589)
[2] = target: IL-2βγ receptor complex on recombinant human U2OS cells (PathHunter IL-2 Cytokine Receptor assay) (UniProt P14784)
[3] = target: IL-2 receptor signaling complexes on human primary CD8+ T cells and NK cells (human) (UniProt P14784)
IL-2 receptor signaling complexes on human primary CD8+ T cells and NK cells (human), sequence (P14784 27-551, chain 1 of 2): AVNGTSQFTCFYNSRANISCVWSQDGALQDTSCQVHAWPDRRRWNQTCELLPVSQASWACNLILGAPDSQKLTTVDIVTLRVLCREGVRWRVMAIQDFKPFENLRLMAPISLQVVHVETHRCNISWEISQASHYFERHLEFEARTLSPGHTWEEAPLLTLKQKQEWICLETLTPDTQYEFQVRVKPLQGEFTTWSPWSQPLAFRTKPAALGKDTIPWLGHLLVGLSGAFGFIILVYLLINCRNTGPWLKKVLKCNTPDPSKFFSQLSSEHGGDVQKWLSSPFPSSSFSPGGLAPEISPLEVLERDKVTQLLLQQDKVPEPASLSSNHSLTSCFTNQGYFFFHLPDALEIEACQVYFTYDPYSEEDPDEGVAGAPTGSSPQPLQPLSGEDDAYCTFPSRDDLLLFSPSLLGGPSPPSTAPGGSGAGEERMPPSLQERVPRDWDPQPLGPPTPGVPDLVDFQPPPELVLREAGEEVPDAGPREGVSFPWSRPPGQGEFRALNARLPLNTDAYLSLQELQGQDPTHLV
IL-2 receptor signaling complexes on human primary CD8+ T cells and NK cells (human), sequence (P31785 23-369, chain 2 of 2, further chain): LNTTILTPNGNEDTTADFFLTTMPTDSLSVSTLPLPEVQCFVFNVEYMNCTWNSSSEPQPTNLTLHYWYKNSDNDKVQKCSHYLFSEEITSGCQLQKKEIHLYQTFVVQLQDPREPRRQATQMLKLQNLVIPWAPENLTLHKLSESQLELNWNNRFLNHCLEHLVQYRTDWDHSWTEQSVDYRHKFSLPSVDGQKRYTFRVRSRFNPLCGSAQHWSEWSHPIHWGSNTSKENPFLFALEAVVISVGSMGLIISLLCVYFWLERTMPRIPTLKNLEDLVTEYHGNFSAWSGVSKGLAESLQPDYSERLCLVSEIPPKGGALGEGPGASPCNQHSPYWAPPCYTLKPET

[4] = target: IL-2 receptor signaling complexes on human primary Treg cells (IL-2 Rα expressing) (human) (UniProt P01589)
IL-2 receptor signaling complexes on human primary Treg cells (IL-2 Rα expressing) (human), sequence (P01589 22-272, chain 1 of 3): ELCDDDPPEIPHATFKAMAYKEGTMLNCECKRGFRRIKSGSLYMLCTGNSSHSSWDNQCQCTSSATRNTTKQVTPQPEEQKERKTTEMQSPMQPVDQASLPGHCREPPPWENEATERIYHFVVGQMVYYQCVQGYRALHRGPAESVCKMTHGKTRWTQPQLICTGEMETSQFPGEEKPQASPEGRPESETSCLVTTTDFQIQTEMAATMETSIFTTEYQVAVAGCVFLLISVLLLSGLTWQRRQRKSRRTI
IL-2 receptor signaling complexes on human primary Treg cells (IL-2 Rα expressing) (human), sequence (P14784 27-551, chain 2 of 3, further chain): as the sequence (P14784 27-551, chain 1 of 2) above
IL-2 receptor signaling complexes on human primary Treg cells (IL-2 Rα expressing) (human), sequence (P31785 23-369, chain 3 of 3, further chain): as the sequence (P31785 23-369, chain 2 of 2, further chain) above

K43_30kD, sequence (P60568 other isoform, or with tags, fused parts or gaps limits assumed): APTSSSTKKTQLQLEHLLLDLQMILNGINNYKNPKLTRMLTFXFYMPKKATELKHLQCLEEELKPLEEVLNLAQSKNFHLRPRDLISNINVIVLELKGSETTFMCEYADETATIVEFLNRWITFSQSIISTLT
F42_30kD, sequence (P60568 other isoform, or with tags, fused parts or gaps limits assumed): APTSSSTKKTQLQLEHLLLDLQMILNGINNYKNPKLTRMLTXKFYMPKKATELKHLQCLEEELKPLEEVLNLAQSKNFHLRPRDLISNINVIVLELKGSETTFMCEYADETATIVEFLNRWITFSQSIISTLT
K35 (10 kD PEGylated IL-2 conjugate, Table 2), sequence (P60568 other isoform, or with tags, fused parts or gaps limits assumed): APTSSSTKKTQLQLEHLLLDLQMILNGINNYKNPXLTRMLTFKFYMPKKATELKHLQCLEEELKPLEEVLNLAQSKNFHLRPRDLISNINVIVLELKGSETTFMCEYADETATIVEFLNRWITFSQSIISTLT

| Substance | EC50 (nM), PathHunter IL-2 Cytokine Receptor assay, αβγ [1] | EC50 (nM), PathHunter IL-2 Cytokine Receptor assay, βγ [2] | EC50 for pSTAT5 signaling; CD8+ T Cells [3] | EC50 for pSTAT5 signaling; NK Cells [3] | EC50 for pSTAT5 signaling; Treg Cells [4] |
| --- | --- | --- | --- | --- | --- |
| F42 (10 kD PEGylated IL-2 conjugate, Table 2) (from UniProt P60568 21-153) (ligand) | 0.515 nM | 6.09 nM | – | – | – |
| F42_30kD (from UniProt P60568 21-153) (ligand) | – | – | 108000 pg/mL | 16400 pg/mL | 36900 pg/mL |
| K35 (10 kD PEGylated IL-2 conjugate, Table 2) (from UniProt P60568 21-153) (ligand) | – | 6.75 nM | – | – | – |
| K43 (10 kD PEGylated IL-2 conjugate, Table 2) (from UniProt P60568 21-153) (ligand) | 0.131 nM | 9.84 nM | – | – | – |
| K43_30kD (from UniProt P60568 21-153) (ligand) | – | – | 50500 pg/mL | 9000 pg/mL | 4800 pg/mL |
| R38 (10 kD PEGylated IL-2 conjugate, Table 2) (from UniProt P60568 21-153) (ligand) | 0.165 nM | 4.16 nM | – | – | – |
| T41 (10 kD PEGylated IL-2 conjugate, Table 2) (from UniProt P60568 21-153) (ligand) | 0.0489 nM | 6.37 nM | – | – | – |
| V69* (30 kD PEGylated IL-2 conjugate, Table 2) (from UniProt P60568 21-153) (ligand) | 0.083 nM | 9.99 nM | – | – | – |
| Y45* (30 kD PEGylated IL-2 conjugate, Table 2) (from UniProt P60568 21-153) (ligand) | 0.11 nM | 9.06 nM | – | – | – |
